The assay concerns the target NS2/3 (810-1615BK): HCV residues 810-1615 of the BK strain, all of NS2 and most of NS3 (Hepatitis C virus, BK strain) (UniProt P26663). The experiment in a line: co-immunoprecipitation with anti-HSP90 mAb 3G3; NS2/3 synthesized in reticulocyte lysate with or without 10 µM geldanamycin (small molecule).

Data on 1 substance can be found in patent US20030211469A1, “Inhibiting hepatitis c virus processing and replication” (priority 2003, published 2003).

Sequence of UniProt P26663 (P26663 810-1615): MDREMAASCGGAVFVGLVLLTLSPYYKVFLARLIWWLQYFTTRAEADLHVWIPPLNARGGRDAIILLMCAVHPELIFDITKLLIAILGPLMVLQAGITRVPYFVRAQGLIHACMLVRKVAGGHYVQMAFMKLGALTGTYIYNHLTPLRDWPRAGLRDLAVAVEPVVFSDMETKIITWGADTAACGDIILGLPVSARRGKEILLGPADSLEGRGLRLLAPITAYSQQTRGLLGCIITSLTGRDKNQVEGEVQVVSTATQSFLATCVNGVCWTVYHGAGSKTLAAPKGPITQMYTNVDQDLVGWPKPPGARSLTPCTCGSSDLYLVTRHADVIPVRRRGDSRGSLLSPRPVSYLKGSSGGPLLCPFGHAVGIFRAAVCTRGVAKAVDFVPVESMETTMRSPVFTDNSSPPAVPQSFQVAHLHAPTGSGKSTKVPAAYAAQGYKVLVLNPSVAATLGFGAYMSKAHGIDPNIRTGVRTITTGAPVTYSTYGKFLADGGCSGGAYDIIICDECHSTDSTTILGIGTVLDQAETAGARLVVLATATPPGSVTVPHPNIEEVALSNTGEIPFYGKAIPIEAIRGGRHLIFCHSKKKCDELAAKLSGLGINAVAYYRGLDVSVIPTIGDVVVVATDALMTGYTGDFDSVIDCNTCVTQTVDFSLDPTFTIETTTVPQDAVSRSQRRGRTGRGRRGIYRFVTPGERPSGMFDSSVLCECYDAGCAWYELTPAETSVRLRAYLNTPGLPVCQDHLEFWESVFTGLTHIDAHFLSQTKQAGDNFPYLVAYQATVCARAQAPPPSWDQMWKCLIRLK

“heat shock protein 90 (HSP90) (from UniProt P30947 2-726)”: the decrease of the amount of NS2/3 co-immunoprecipitated in the presence of 10 µM geldanamycin worked out at 60%.
